{
  "source": "paper PMC2787667",
  "about": "(Cellular signalling, 2009)",
  "assay_in_all_cases": "FRET or BRET",
  "key": {"[1]": {"target": "hFSHR(H485A,S488A,M492A,I495A,F504A), as Rluc and GFP2 fusion proteins (human) (UniProt P23945)"}, "[2]": {"target": "hFSHR(Y110A,H485A,S488A,M492A,I495A,F504A), as Rluc and GFP2 fusion proteins (human) (UniProt P23945)"}, "FRET or BRET": {"target": "the molecule itself"}},
  "data": [
    {"molecule": "hFSHR(H485A,S488A,M492A,I495A,F504A), as Rluc and GFP2 fusion proteins (from UniProt P23945 18-695) (receptor)", "values": [
      {"measurement": "BRET50 mut/BRET50 wt", "setting": "[1]", "value": 1.41}
    ]},
    {"molecule": "hFSHR(Y110A,H485A,S488A,M492A,I495A,F504A), as Rluc and GFP2 fusion proteins (from UniProt P23945 18-695) (receptor)", "values": [
      {"measurement": "BRET50 mut/BRET50 wt", "setting": "[2]", "value": 1.29}
    ]},
    {"molecule": "hFSHR(M490A,W494A,I495A), as Rluc and GFP2 fusion proteins (receptor, human, UniProt P23945 18-695, looked up) CHHRICHCSNRVFLCQESKVTEIPSDLPRNAIELRFVLTKLRVIQKGAFSGFGDLEKIEISQNDVLEVIEADVFSNLPKLHEIRIEKANNLLYINPEAFQNLPNLQYLLISNTGIKHLPDVHKIHSLQKVLLDIQDNINIHTIERNSFVGLSFESVILWLNKNGIQEIHNCAFNGTQLDELNLSDNNNLEELPNDVFHGASGPVILDISRTRIHSLPSYGLENLKKLRARSTYNLKKLPTLEKLVALMEASLTYPSHCCAFANWRRQISELHPICNKSILRQEVDYMTQARGQRSSLAEDNESSYSRGFDMTYTEFDYDLCNEVVDVTCSPKPDAFNPCEDIMGYNILRVLIWFISILAITGNIIVLVILTTSQYKLTVPRFLMCNLAFADLCIGIYLLLIASVDIHTKSQYHNYAIDWQTGAGCDAAGFFTVFASELSVYTLTAITLERWHTITHAMQLDCKVQLRHAASVAVMGAAFAFAAALFPIFGISSYMKVSICLPMDIDSPLSQLYVMSLLVLNVLAFVVICGCYIHIYLTVRNPNIVSSSSDTRIAKRMAMLIFTDFLCMAPISFFAISASLKVPLITVSKAKILLVLFHPINSCANPFLYAIFTKNFRRDFFILLSKCGCYEMQAQIYRTETSSTVHNTHPRNGHCSSAPRVTSGSTYILVPLSHLAQN", "values": [
      {"measurement": "BRET50 mut/BRET50 wt", "setting": "FRET or BRET", "value": 1.5, "unit": "ratio"}
    ]},
    {"molecule": "hFSHR(W436A,W494A), as Rluc and GFP2 fusion proteins (receptor, human, UniProt P23945 18-695, looked up) CHHRICHCSNRVFLCQESKVTEIPSDLPRNAIELRFVLTKLRVIQKGAFSGFGDLEKIEISQNDVLEVIEADVFSNLPKLHEIRIEKANNLLYINPEAFQNLPNLQYLLISNTGIKHLPDVHKIHSLQKVLLDIQDNINIHTIERNSFVGLSFESVILWLNKNGIQEIHNCAFNGTQLDELNLSDNNNLEELPNDVFHGASGPVILDISRTRIHSLPSYGLENLKKLRARSTYNLKKLPTLEKLVALMEASLTYPSHCCAFANWRRQISELHPICNKSILRQEVDYMTQARGQRSSLAEDNESSYSRGFDMTYTEFDYDLCNEVVDVTCSPKPDAFNPCEDIMGYNILRVLIWFISILAITGNIIVLVILTTSQYKLTVPRFLMCNLAFADLCIGIYLLLIASVDIHTKSQYHNYAIDAQTGAGCDAAGFFTVFASELSVYTLTAITLERWHTITHAMQLDCKVQLRHAASVMVMGAIFAFAAALFPIFGISSYMKVSICLPMDIDSPLSQLYVMSLLVLNVLAFVVICGCYIHIYLTVRNPNIVSSSSDTRIAKRMAMLIFTDFLCMAPISFFAISASLKVPLITVSKAKILLVLFHPINSCANPFLYAIFTKNFRRDFFILLSKCGCYEMQAQIYRTETSSTVHNTHPRNGHCSSAPRVTSGSTYILVPLSHLAQN", "values": [
      {"measurement": "BRET50 mut/BRET50 wt", "setting": "FRET or BRET", "value": 1.29, "unit": "ratio"}
    ]},
    {"molecule": "hFSHR(I381A,V491A), as Rluc and GFP2 fusion proteins (receptor, human, UniProt P23945 18-695, looked up) CHHRICHCSNRVFLCQESKVTEIPSDLPRNAIELRFVLTKLRVIQKGAFSGFGDLEKIEISQNDVLEVIEADVFSNLPKLHEIRIEKANNLLYINPEAFQNLPNLQYLLISNTGIKHLPDVHKIHSLQKVLLDIQDNINIHTIERNSFVGLSFESVILWLNKNGIQEIHNCAFNGTQLDELNLSDNNNLEELPNDVFHGASGPVILDISRTRIHSLPSYGLENLKKLRARSTYNLKKLPTLEKLVALMEASLTYPSHCCAFANWRRQISELHPICNKSILRQEVDYMTQARGQRSSLAEDNESSYSRGFDMTYTEFDYDLCNEVVDVTCSPKPDAFNPCEDIMGYNILRVLIWFISILAITGNAIVLVILTTSQYKLTVPRFLMCNLAFADLCIGIYLLLIASVDIHTKSQYHNYAIDWQTGAGCDAAGFFTVFASELSVYTLTAITLERWHTITHAMQLDCKVQLRHAASVMAMGWIFAFAAALFPIFGISSYMKVSICLPMDIDSPLSQLYVMSLLVLNVLAFVVICGCYIHIYLTVRNPNIVSSSSDTRIAKRMAMLIFTDFLCMAPISFFAISASLKVPLITVSKAKILLVLFHPINSCANPFLYAIFTKNFRRDFFILLSKCGCYEMQAQIYRTETSSTVHNTHPRNGHCSSAPRVTSGSTYILVPLSHLAQN", "values": [
      {"measurement": "BRET50 mut/BRET50 wt", "setting": "FRET or BRET", "value": 1.69, "unit": "ratio"}
    ]},
    {"molecule": "hFSHR(I382A,V383A,M490A,V491A), as Rluc and GFP2 fusion proteins (receptor, human, UniProt P23945 18-695, looked up) CHHRICHCSNRVFLCQESKVTEIPSDLPRNAIELRFVLTKLRVIQKGAFSGFGDLEKIEISQNDVLEVIEADVFSNLPKLHEIRIEKANNLLYINPEAFQNLPNLQYLLISNTGIKHLPDVHKIHSLQKVLLDIQDNINIHTIERNSFVGLSFESVILWLNKNGIQEIHNCAFNGTQLDELNLSDNNNLEELPNDVFHGASGPVILDISRTRIHSLPSYGLENLKKLRARSTYNLKKLPTLEKLVALMEASLTYPSHCCAFANWRRQISELHPICNKSILRQEVDYMTQARGQRSSLAEDNESSYSRGFDMTYTEFDYDLCNEVVDVTCSPKPDAFNPCEDIMGYNILRVLIWFISILAITGNIAALVILTTSQYKLTVPRFLMCNLAFADLCIGIYLLLIASVDIHTKSQYHNYAIDWQTGAGCDAAGFFTVFASELSVYTLTAITLERWHTITHAMQLDCKVQLRHAASVAAMGWIFAFAAALFPIFGISSYMKVSICLPMDIDSPLSQLYVMSLLVLNVLAFVVICGCYIHIYLTVRNPNIVSSSSDTRIAKRMAMLIFTDFLCMAPISFFAISASLKVPLITVSKAKILLVLFHPINSCANPFLYAIFTKNFRRDFFILLSKCGCYEMQAQIYRTETSSTVHNTHPRNGHCSSAPRVTSGSTYILVPLSHLAQN", "values": [
      {"measurement": "BRET50 mut/BRET50 wt", "setting": "FRET or BRET", "value": 0.934, "unit": "ratio"}
    ]},
    {"molecule": "hFSHR(Y110A), full-length, as Rluc and GFP2 fusion proteins (receptor, human, UniProt P23945 18-695, looked up) CHHRICHCSNRVFLCQESKVTEIPSDLPRNAIELRFVLTKLRVIQKGAFSGFGDLEKIEISQNDVLEVIEADVFSNLPKLHEIRIEKANNLLAINPEAFQNLPNLQYLLISNTGIKHLPDVHKIHSLQKVLLDIQDNINIHTIERNSFVGLSFESVILWLNKNGIQEIHNCAFNGTQLDELNLSDNNNLEELPNDVFHGASGPVILDISRTRIHSLPSYGLENLKKLRARSTYNLKKLPTLEKLVALMEASLTYPSHCCAFANWRRQISELHPICNKSILRQEVDYMTQARGQRSSLAEDNESSYSRGFDMTYTEFDYDLCNEVVDVTCSPKPDAFNPCEDIMGYNILRVLIWFISILAITGNIIVLVILTTSQYKLTVPRFLMCNLAFADLCIGIYLLLIASVDIHTKSQYHNYAIDWQTGAGCDAAGFFTVFASELSVYTLTAITLERWHTITHAMQLDCKVQLRHAASVMVMGWIFAFAAALFPIFGISSYMKVSICLPMDIDSPLSQLYVMSLLVLNVLAFVVICGCYIHIYLTVRNPNIVSSSSDTRIAKRMAMLIFTDFLCMAPISFFAISASLKVPLITVSKAKILLVLFHPINSCANPFLYAIFTKNFRRDFFILLSKCGCYEMQAQIYRTETSSTVHNTHPRNGHCSSAPRVTSGSTYILVPLSHLAQN", "values": [
      {"measurement": "BRET50 mut/BRET50 wt", "setting": "FRET or BRET", "value": 1.74, "unit": "ratio"}
    ]}
  ]
}
